Positions count from the first letter of the chain named. Names may count otherwise.
B1: Myr-I3-01-myc-p6 (designed binder)
chain: MGARASGSKSGSGSDSGSKMEELFKKHKIVAVLRANSVEEAKKKALAVFLGGVHLIEITFTVPDADTVIKELSFLKEMGAIIGAGTVTSVEQCRKAVESGAEFIVSPHLDEEISQFCKEKGVFYMPGVMTPTELVKAMKLGHTILKLFPGEVVGPQFVKAMKGPFPNVKFVPTGGVNLDNVCEWFKAGVLAVGVGSALVKGTPVEVAEKAKAFVEKIRGCTEQKLISEEDLQSRPEPTAPPEESFRSGVETTTPPQKQEPIDKELYPLTSLRSLFGNDPSSQ
modifications: N-terminal myristoylation motif (6 N-terminal amino acids of HIV Gag); not myristoylated when produced in E. coli
notes: Forms icosahedral assemblies like I3-01; also called Myr-I3-01-p6
B2: EPN-01 (designed binder)
chain: B1 chain with M20I
modifications: N-terminal myristoylation motif (6 N-terminal amino acids of HIV Gag)
notes: Every subunit bears the M domain; also called Myr1-12GS-I3-01(M3I)-myc-Late1

Columns and labels:
[1] = target: the molecule itself; assay: size exclusion chromatography and negative stain EM, self-assembly
[2] = target: the molecule itself; assay: electron cryo-tomography of released vesicles, self-assembly

Protein	binding result [1]	binding result [2]
B1	binds	–
B2	–	binds

Reference: patent publication US20200224186A1 (University of Washington, published 2020)
